Assay results from US20130177981A1.
One block for each binder: values may come before it.

Assays:
Mcl-1, Q07820 [1] = target: T1, Mcl-1, Q07820; experiment: competition FP; displacement of the labeled Bak BH3 peptide
T1 chain: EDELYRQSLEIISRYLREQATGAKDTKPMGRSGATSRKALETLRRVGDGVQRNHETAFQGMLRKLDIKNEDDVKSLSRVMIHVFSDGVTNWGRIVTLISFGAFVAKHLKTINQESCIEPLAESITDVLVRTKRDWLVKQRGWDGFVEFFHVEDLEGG

Bcl-xL, Q07817 = experiment: direct-binding FP with the BODIPY-labeled analogue
Mcl-1, Q07820 [2] = target: T1, Mcl-1, Q07820; experiment: direct-binding FP with the BODIPY-labeled analogue

Bcl-xL, Q07817, sequence (Q07817 1-209): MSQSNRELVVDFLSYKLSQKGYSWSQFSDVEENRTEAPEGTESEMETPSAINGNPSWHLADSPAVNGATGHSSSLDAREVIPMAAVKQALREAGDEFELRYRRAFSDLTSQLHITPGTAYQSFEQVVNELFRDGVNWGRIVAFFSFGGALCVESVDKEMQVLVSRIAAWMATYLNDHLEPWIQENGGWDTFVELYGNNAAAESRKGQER

Ki (Mcl-1, Q07820 [1]): < 10 nM
B1: Puma BH3 α-peptide 1′, Q9BXH1 130-155 (peptide, UniProt Q9BXH1 130-155, looked up)
peptide: EEQWAREIGAQLRRMADDLNAQYERR
modifications: not checked

Kd (Bcl-xL, Q07817): 2.2 nM
Kd (Mcl-1, Q07820 [2]): 110 nM
B2: BODIPY-TMR-labeled analog of Puma BH3 α/β-peptide 4′, Q9BXH1 130-155 (peptide, UniProt Q9BXH1 130-155, looked up)
peptide: EEQWAREIGAQLRRMADDLNAQYERR
modifications: not checked

Kd (Mcl-1, Q07820 [2]): < 2 nM
B3: BODIPY-TMR-labeled analog of Puma BH3 α-peptide 1′, Q9BXH1 130-155 (peptide, UniProt Q9BXH1 130-155, looked up)
peptide: EEQWAREIGAQLRRMADDLNAQYERR
modifications: not checked
